Experimental findings from article PMC5426754 are described below.

Read-outs that look alike come from different tables or passages of the source.

For test [1], the target named is S100A4 (metastasin), wild type (UniProt P26447). Description: fluorescence polarisation; competitive FP; 50 nM Fl-NMIIA complexed with 4 μM S100A4 dimer titrated with ezrin constructs; competition binding equation; triplicates. On the technique in general: Fluorescence polarisation rises when a labelled molecule tumbles more slowly, as on binding a larger partner.
S100A4 (metastasin), wild type (UniProt P26447), sequence (P26447 whole entry): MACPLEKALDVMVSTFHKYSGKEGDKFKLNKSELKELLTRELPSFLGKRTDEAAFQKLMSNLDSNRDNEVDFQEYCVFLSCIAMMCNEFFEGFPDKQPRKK
For test [2] the target is unchanged. The description is as above. This is another data set of the same source.
Test [3] concerns the target S100A4-Δ9 (S100A4 C-terminally truncated by 9 residues) (UniProt P26447). The experiment in a line: NMR titration; unlabeled C-ERMAD (7.5 mM stock) added gradually to 15N-labeled S100A4-Δ9 dimer (250 μM) up to 2.1:1; 1H-15N HSQC, 700 MHz, 300 K; 20 mM MES pH 6.0, 150 mM NaCl, 10 mM CaCl2, 5 mM TCEP; ten shifting peaks fitted to a quadratic binding equation.
Test [4] concerns the target Fl-C-ERMAD^516–560 (fluorescently labeled, Cys-Lys516-Leu560) (human). The experiment in a line: fluorescence polarisation; direct FP; 50 nM fluorescent tracer (Fl-C-ERMAD variants or Fl-NMIIA) titrated with S100 proteins or N-ERMAD; 20 mM HEPES pH 7.5, 150 mM NaCl, 0.1 mM TCEP, 1 mM CaCl2, 0.05% Tween-20; triplicates; quadratic binding equation.

Ezrin C-ERMAD (Cys-Lys516-Leu586), unlabeled, sequence (P15311 other isoform, or with tags, fused parts or gaps): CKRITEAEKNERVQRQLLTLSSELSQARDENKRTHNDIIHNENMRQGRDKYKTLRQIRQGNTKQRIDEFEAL
S100A4 (metastasin), wild type (from UniProt P26447 1-101) (natural protein), sequence (P26447 whole entry): as the sequence (P26447 whole entry) above

“Ezrin C-ERMAD^516–560 (Cys-Lys516-Leu560), unlabeled (domain or fragment)”: the Kd – broadly, the constant that tells how readily two partners part at equilibrium – in test [1] came out at 27.6 µM; in test [2], 28.6 µM. As for “Ezrin C-ERMAD (Cys-Lys516-Leu586), unlabeled (from UniProt P15311 516-586) (domain or fragment)”, in test [3], the Kd came out at 10.8 µM. Take “S100A4 (metastasin), wild type (from UniProt P26447 1-101) (natural protein)”: the Kd in test [4] is 8.4 µM.
